Data: paper PMC5992149

Biological target: receptor for advanced glycation end products (human (endogenous in MDA-MB-231)) (UniProt Q15109)
Chain of UniProt Q15109 (Q15109 23-404): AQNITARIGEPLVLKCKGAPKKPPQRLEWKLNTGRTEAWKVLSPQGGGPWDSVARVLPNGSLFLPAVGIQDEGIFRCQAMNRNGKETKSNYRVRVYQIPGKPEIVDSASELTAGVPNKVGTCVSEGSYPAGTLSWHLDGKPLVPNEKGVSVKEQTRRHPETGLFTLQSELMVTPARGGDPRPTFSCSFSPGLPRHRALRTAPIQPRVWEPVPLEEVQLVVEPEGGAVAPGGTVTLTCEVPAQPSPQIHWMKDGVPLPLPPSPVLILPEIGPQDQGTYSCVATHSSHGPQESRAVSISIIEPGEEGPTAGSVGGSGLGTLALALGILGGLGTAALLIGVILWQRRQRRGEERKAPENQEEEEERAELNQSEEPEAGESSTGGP

DNA fragmentation of hyperacetylated MDA-MB-231 cells treated with rh Ac-APE1/Ref-1 after pretreatment with anti-APE1/Ref-1 antibody (2 µg, 2 h), against anti-IgG treated cells: 35%
Substance: recombinant human Ac-APE1/Ref-1 (from UniProt P27695 1-318) (natural protein)
cell viability of hyperacetylated MDA-MB-231 cells treated with rh Ac-APE1/Ref-1 after pretreatment with anti-APE1/Ref-1 antibody (2 µg, 2 h): 72.8%
